Measurements taken from publication PMC3089606, “The E. coli Anti-Sigma Factor Rsd: Studies on the Specificity and Regulation of Its Expression” (PLoS ONE, 2011).
Values belong to the molecule of their own block, whether it stands above or below them.

Legend:
[1] = tested on: RNA polymerase holoenzyme Esigma38 (Escherichia coli); assay: EMSA; conditions: 1 uM Rsd; binding buffer, salt, pH and temperature not given in the material; heparin competitor in NAP footprints
[2] = target: T1, RNA polymerase sigma factor σ^70 (E. coli, UniProt P00579 1-613); assay: cross-linking; 3 µg Rsd with 3 µg σ^70, σ^38 or Rsd (or each protein alone), 30 minutes in 15 µl 50 mM HEPES pH 7.4, 5% glycerol, 0.1 mM EDTA, 0.1 mM DTT; 0.02% glutaraldehyde, room temperature 30 minutes; SDS gel, Coomassie staining; conditions: both partners purified
T1 construct: RNA polymerase sigma factor σ^70 (RpoD), E. coli; also called free σ^70; sigma D

[3] = target: the molecule itself; assay: as above
[4] = target: T1, RNA polymerase sigma factor σ^70; assay: pull-down; biotinylated Rsd incubated with the protein of interest (molar ratios 1:1 or 1:3) for 1 hour in TGED buffer on ice, held on Streptavidine MicroBeads column, four washes, elution with SDS buffer; SDS gel, Coomassie and silver staining; conditions: both partners purified
[5] = target: T2, RNA polymerase sigma factor σ^38 (E. coli, UniProt P13445 1-330); assay: as above; conditions: both partners purified
T2 construct: stationary phase-specific sigma factor σ^38 (RpoS), E. coli; also called σ^s; RpoS
T2 sequence (P13445 whole entry): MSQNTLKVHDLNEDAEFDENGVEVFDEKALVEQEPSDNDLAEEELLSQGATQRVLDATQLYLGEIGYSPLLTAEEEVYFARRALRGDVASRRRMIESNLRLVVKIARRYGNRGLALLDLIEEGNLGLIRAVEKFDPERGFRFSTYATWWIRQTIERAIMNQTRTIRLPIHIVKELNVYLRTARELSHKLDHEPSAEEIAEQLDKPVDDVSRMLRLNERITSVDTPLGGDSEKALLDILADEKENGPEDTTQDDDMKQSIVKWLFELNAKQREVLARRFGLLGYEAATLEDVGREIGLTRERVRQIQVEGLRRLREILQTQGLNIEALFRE

T1 sequence (P00579 whole entry): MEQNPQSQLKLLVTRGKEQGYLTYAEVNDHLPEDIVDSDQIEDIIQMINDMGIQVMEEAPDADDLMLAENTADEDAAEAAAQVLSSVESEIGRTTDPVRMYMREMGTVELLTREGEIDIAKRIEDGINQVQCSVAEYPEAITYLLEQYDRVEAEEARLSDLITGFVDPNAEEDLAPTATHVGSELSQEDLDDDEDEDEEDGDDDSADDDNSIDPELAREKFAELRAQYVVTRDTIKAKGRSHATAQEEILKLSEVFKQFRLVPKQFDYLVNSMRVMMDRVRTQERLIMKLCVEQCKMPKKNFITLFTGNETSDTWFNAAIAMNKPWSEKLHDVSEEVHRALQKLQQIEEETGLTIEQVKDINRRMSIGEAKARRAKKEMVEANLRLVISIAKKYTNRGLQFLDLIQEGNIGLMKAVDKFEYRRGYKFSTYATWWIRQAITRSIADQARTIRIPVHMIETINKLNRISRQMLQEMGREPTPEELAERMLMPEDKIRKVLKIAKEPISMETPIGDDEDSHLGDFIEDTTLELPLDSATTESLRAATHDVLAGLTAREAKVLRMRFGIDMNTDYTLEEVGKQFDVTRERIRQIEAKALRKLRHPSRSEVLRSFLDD

Molecule: fic promoter fragment
binding signal (% of complex remaining) [1]: 50

binding result [2]: binds
B1: Rsd (regulator of sigma D), native protein (natural protein, E. coli, UniProt P0AFX4 1-158, looked up)
chain: MLNQLDNLTERVRGSNKLVDRWLHVRKHLLVAYYNLVGIKPGKESYMRLNEKALDDFCQSLVDYLSAGHFSIYERILHKLEGNGQLARAAKIWPQLEANTQQIMDYYDSSLETAIDHDNYLEFQQVLSDIGEALEARFVLEDKLILLVLDAARVKHPA
notes: Rsd (regulator of sigma D), E. coli; No tag is mentioned; also called native Rsd; anti-sigma factor Rsd; source: E. coli BL21DE3pLysS/pUC18-Rsd, purified (DEAE-Sephadex A25, P11-phosphocellulose, NH4SO4 precipitation)
stoichiometry N [3]: 2

binding result [4]: binds
binding result [5]: binds
B2: Biotinylated Rsd (natural protein, E. coli, UniProt P0AFX4 1-158, looked up)
chain: B1 chain
modifications: biotin (9 fold excess of Biotinyl-N-hydroxy-succinimide; modified residues not stated)
notes: Rsd (regulator of sigma D), E. coli; Held on Streptavidine MicroBeads through the biotin; also called Biotinylated-Rsd protein; immobilized Rsd; source: E. coli BL21DE3pLysS/pUC18-Rsd, purified, then biotinylated with Biotinyl-N-hydroxy-succinimide
